target: T1, GC-A receptors (Homo sapiens, UniProt P16066); test: Selectivity experiment: peptide mixture bound to GC-A expressed cell membrane fraction, MALDI-TOF-MS; format: binding; conditions: 10 pmol/μl each, CHO/GC-A vs CHO host cell membrane fraction
T1 construct: expressed in transfected cells; host or cells: CHO/GC-A cells (Chinese hamster ovary), membrane fraction
T1 sequence (P16066 33-1061): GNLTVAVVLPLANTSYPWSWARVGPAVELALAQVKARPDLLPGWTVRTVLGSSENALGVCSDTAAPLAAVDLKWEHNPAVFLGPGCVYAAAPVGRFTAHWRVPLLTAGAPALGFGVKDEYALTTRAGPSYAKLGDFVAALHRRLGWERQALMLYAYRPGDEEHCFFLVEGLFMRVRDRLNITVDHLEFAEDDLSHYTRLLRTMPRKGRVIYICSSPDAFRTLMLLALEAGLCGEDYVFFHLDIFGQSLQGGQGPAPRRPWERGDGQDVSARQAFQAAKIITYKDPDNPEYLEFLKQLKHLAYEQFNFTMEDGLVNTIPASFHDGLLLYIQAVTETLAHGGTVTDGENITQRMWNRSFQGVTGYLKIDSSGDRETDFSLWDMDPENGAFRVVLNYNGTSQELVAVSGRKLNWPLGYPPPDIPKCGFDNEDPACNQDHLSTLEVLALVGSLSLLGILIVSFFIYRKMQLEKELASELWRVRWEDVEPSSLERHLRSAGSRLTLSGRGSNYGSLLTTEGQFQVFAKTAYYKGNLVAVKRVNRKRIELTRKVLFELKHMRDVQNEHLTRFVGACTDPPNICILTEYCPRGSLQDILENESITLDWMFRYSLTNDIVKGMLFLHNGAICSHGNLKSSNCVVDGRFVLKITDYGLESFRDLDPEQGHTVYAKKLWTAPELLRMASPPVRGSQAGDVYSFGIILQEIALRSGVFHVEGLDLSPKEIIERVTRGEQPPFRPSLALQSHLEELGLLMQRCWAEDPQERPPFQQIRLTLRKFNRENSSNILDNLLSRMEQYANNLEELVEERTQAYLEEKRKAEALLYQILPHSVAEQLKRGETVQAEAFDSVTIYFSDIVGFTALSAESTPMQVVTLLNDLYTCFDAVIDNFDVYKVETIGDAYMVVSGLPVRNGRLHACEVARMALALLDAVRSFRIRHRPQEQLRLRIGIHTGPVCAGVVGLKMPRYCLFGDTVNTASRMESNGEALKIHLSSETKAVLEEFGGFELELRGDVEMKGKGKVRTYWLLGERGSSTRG
Experimental: An albumin-coated membrane fraction (CHO/GC-A cells and CHO host cells) was obtained in the same manner as in Step 1. and Step 2. of Example 1.
The resulting suspension was centrifuged to obtain pellets. The resulting pellets were further washed with 500 μl of distilled water, and centrifugation was performed again to obtain a ligand-bound membrane fraction.
MALDI-TOF-MS measurement was made in the same manner as in Step 4. of Example 1.

interaction with GC-A receptors (judgement)	Substance
do not interact with GC-A receptors	angiotensin I (DRVYIHPFHL; Angiotensin-1; UniProt P01019 25-34, looked up)
do not interact with GC-A receptors	melanocyte-stimulating hormone [α-MSH]
do not interact with GC-A receptors	substance P

— patent publication US20040235062A1, “Method of analyzing protein occurring in cell or substance interacting with the protein” (priority 2002, published 2004)
